In patent US20240108766A1 (Bayer, published 2024):
Residue numbers refer to the chain shown, from its start.

B1: TPP-17421 (antibody, human IgG1, kappa, V domains shown)
VH: EVQLVQSGAEVKKPGASVKVSCKASGYKFSSYWIEWVKQAPGQGLEWIGEILPGSDWTNYNEKFKDRATFTSDTSINTAYMELSRLRSDDTAVYYCARDRGNYRAWFQYWGQGTLVTVSS
VL: DIQMTQSPSSLSASVGDRVTITCRASQSISSYLNWYQQKPGGAPKFLIYYASSLQSGVPSRFSGSGSGTDYTLTISSLQPEDFATYYCQQGLELPWTFGGGTKVEIKR
notes: also called 438H-M306-C11-hIgG1Kappa
B2: TPP-17078 (antibody, human IgG1, kappa, V domains shown)
VH: B1 VH with W57T, Q108G
VL: B1 VL with L92F, E93S
notes: also called 438H-M308-H05-hIgGkappa
B3: TPP-14389 (antibody, human IgG1, kappa, V domains shown)
VH: EVQLLESGGGLVQPGGSLRLSCAASGFTFSGYMMSWVRQAPGKGLEWVSGIYPSPGYTYYADSVKGRFTISRDNSKNTLYLQMNSLRAEDTAVYYCAREKASDLFGSYSEALDYWGQGTLVTVSS
VL: DIQMTQSPDSLSASVGDRVTITCRASQDVGSWLAWYQQKPGKAPKLLIFAASSLESGIPSRFSGSGSGTDFTLTISSLQPEDFATYYCQQANGFPLTFGGGTKVEIKR
notes: also called 13612-rec02-hIgG1Kappa
B4: TPP-12942 (antibody, human IgG1, kappa, V domains shown)
VH: B1 VH with W57T, Q108G
VL: B1 VL with S28D, S31N, P44V, A51T, S53R, Q55H, Y87F, L92E, E93A
notes: Prior art humanized IgG1 kappa antibody, used as comparator; also called huM25; huM25-hIgG1Kappa

The binders below were run against T1, human LRRC15 extracellular domain with C-terminal His tag (human, UniProt Q8TF66 22-538) (assay: calculated from SPR kd, 25°C).
T1 construct: Recombinant, made in HEK293; the entry holds the extracellular domain and the His tag; SPR analyte; also called TPP-1545; hLRRC15 CT-His
T1 sequence: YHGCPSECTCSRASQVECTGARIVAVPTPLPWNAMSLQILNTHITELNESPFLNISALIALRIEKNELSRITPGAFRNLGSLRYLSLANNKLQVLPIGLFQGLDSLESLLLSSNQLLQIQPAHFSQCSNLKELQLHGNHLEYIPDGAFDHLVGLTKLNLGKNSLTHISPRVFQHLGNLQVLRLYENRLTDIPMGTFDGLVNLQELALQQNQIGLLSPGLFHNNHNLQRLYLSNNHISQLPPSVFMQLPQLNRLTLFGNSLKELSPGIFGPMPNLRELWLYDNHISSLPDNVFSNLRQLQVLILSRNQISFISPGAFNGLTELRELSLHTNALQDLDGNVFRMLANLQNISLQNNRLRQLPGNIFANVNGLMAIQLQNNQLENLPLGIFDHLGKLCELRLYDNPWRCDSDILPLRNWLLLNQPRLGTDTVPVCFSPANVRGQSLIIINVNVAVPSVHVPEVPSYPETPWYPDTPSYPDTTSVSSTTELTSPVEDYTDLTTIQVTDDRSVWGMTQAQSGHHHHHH
Description: (§1) To assess if anti-LRRC-15 antibodies show a difference in binding at different temperatures, binding assays were conducted using surface plasmon resonance (SPR). Binding assays were performed on a Biacore T200 instrument at temperatures of 10° C., 20° C., 25° C. and 37° C. with assay buffer HBS EP+, 1 mg/ml BSA (bovine serum albumine), 300 mM NaCl, 0.05% NaN₃. Antibodies were captured via anti-human Fc IgGs covalently amine coupled to a CM5 sensor chip and human LRRC15 was used as an analyte in a concentration series from 1.56-200 nM in multi cycle kinetics mode. Pre-experiments were conducted to have an equal capture level at each temperature. Obtained sensorgrams were fitted to a 1:1 Langmuir binding model to derive kinetic data.
In the case of B1, the “Complex Half Life” value is reported as 218 min.
In the case of B2, the “Complex Half Life” value is reported as 127 min.
For B3, the “Complex Half Life” value was 8.9 min.

What follows are binders tested against T1, human LRRC15 extracellular domain with … (assay: calculated from SPR kd, 37°C).
Description: as §1
For B4, the “Complex Half Life” value was 1.6 min.
In the case of B1, the “Complex Half Life” value is reported as 64.2 min.
In the case of B2, the “Complex Half Life” value is reported as 17.5 min.
With B3 the “Complex Half Life” value was 0.6 min.

What follows are binders tested against T2, human LRRC15 expressed on cells (human, UniProt Q8TF66 22-581) (assay: flow cytometry, transfected HEK293, 0 µg/ml).
T2 construct: whole, on cells; On HEK293 cells transfected with LRRC15/ZsGreen1 (Retrogenix), on HT29 cells transfected with human LRRC15, and endogenous on Saos-2; also called LRRC15/ZsGreen1 transfected HEK293 cells; HT29-LRRC15
T2 sequence (looked up): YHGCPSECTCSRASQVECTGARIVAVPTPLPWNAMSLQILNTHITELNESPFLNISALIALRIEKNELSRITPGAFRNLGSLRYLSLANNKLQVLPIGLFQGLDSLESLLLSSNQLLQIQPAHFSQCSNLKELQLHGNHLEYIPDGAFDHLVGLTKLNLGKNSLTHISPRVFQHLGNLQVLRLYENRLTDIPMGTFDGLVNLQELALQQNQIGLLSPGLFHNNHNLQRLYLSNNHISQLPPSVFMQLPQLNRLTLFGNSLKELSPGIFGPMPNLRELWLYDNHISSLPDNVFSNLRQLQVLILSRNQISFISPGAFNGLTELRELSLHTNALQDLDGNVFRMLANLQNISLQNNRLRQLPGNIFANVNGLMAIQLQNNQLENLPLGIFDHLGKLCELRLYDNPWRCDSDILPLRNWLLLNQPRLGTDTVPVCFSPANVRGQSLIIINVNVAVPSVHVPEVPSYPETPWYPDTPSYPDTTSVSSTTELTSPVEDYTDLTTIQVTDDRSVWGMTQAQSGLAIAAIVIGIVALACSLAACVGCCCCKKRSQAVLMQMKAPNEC
For B4, the “Median Fluorescence AF647” value was 594.
For B1, the “Median Fluorescence AF647” value was 588.
B2 was tested, and the “Median Fluorescence AF647” value was 597.

What follows are binders tested against T2, human LRRC15 expressed on cells (assay: flow cytometry, transfected HEK293, 0.02 µg/ml).
With B4 the “Median Fluorescence AF647” value was 63400.
For B1, the “Median Fluorescence AF647” value was 35200.
B2 was tested, and the “Median Fluorescence AF647” value was 83700.

These binders were tested against T2, human LRRC15 expressed on cells (assay: flow cytometry, transfected HEK293, 12.5 µg/ml).
For B4, the “Median Fluorescence AF647” value was 726000.
In the case of B1, the “Median Fluorescence AF647” value is reported as 736000.
For B2, the “Median Fluorescence AF647” value was 707000.

What follows are binders tested against T1, human LRRC15 extracellular domain with … (assay: SPR Biacore T200, antibody captured, LRRC15 analyte, 10°C).
Description: as §1
For B4, the Kd was 5.2 nM.
Binder B1 has a Kd of 0.46 nM.
Binder B2 has a Kd of 0.32 nM.
Binder B3 has a Kd of 0.61 nM.

Each binder was assayed against T1, human LRRC15 extracellular domain with … (assay: SPR Biacore T200, antibody captured, LRRC15 analyte, 25°C).
Description: as §1
With B4 the Kd was 21 nM.
B1 was tested, and the Kd was 0.88 nM.
B2 was tested, and the Kd was 1.6 nM.
For B3, the Kd was 5.4 nM.
